Assay results reported in US20120315277A1, “Compositions and Methods for the Therapy and Diagnosis of Influenza” (priority 2011, published 2012).
Where “and” joins values, the source holds several entries; their conditions need not be identical. Equal entries are not always repeated. Where two headings read alike, the source gives them in different places.

T1: M2 protein of influenza A/Fort Worth/1/50 (H1N1), expressed on 293 cells (influenza A virus A/Fort Worth/1/50 …)
T1 chain: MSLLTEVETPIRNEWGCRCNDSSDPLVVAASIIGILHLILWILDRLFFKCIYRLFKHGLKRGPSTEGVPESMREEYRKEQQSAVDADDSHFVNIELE


Tests used:
[1] = tested on: H5N1 (A/Vietnam/1203/04, VN1203); design: species or system mouse (balb/c); details: mouse, in vivo
[2] = tested on: H5N1 (A/Vietnam/1203/04, VN1203); design: species or system mouse (balb/c); details: mouse, in vivo; remark: listed apart in the source
[3] = tested on: H1N1 (A/Solomon Islands/06); assay: H1N1 challenge IV at 10LD50 (Example 16); assay type: in vivo, mouse (balb/c); details: 10MLD50; antibody on days 3 and 5
H1N1 (A/NWS/33) = assay: H1N1 challenge V at 2 or 4 LD50 (Example 17); assay type: in vivo, mouse (balb/c); details: antibody 20 mg/kg, oseltamivir 10 mg/kg bid
H1N1 (A/PR/8/34) = assay: H1N1 challenge VI at 5LD50 (Example 18); assay type: in vivo, mouse (balb/c); details: 5MLD50; antibody 20 mg/kg days 1, 3, 5; oseltamivir 10 mg/kg four hours post-infection
H5N1 (VN1203/04) [4] = details: mouse, in vivo
[5] = tested on: H5N1 (A/Vietnam/1203/04, VN1203); design: species or system mouse (balb/c); details: mouse, in vivo; remark: listed apart in the source
[6] = tested on: H5N1 (A/Vietnam/1203/04, VN1203); design: species or system mouse (balb/c); details: mouse, in vivo; remark: listed apart in the source
H5N1 (VN1203/04) [7] = tested on: H5N1 (VN1203/04); design: key to Liver: viral antigens: +++: many; ++: moderate; +: few; ±: rare; −: negative; key to Liver: pathological changes / Lung: pathological changes / Brain: pathological changes: +++: severe; ++: moderate; +: mild; ±: scant; −: not observed; details: mouse, in vivo
H5N1 (VN1203/04) [8] = tested on: H5N1 (VN1203/04); design: key: +++: many; ++: moderate; +: few; ±: rare; −: negative; details: mouse, in vivo
H5N1 (VN1203/04) [9] = tested on: H5N1 (VN1203/04); design: key: +++: severe; ++: moderate; +: mild; ±: scant; −: not observed; details: mouse, in vivo
M2 peptide SEQ ID NO 273 = assay: peptide ELISA, 5 µg/mL
[10] = biological target: truncated M2 peptide SEQ ID NO 271; assay: peptide ELISA, 5 µg/mL
[11] = biological target: truncated M2 peptide SEQ ID NO 298; assay: peptide ELISA, 5 µg/mL
[12] = biological target: truncated M2 peptide SEQ ID NO 299; assay: peptide ELISA, 5 µg/mL
[13] = biological target: truncated M2 peptide SEQ ID NO 300; assay: peptide ELISA, 5 µg/mL
[14] = biological target: truncated M2 peptide SEQ ID NO 301; assay: peptide ELISA, 5 µg/mL
[15] = biological target: truncated M2 peptide SEQ ID NO 302; assay: peptide ELISA, 5 µg/mL
[16] = biological target: truncated M2 peptide SEQ ID NO 303; assay: peptide ELISA, 5 µg/mL
[17] = biological target: truncated M2 peptide SEQ ID NO 304; assay: peptide ELISA, 5 µg/mL
[18] = biological target: truncated M2 peptide SEQ ID NO 305; assay: peptide ELISA, 5 µg/mL
[19] = biological target: truncated M2 peptide SEQ ID NO 306; assay: peptide ELISA, 5 µg/mL
[20] = biological target: truncated M2 peptide SEQ ID NO 307; assay: peptide ELISA, 5 µg/mL
[21] = biological target: truncated M2 peptide SEQ ID NO 308; assay: peptide ELISA, 5 µg/mL
[22] = biological target: truncated M2 peptide SEQ ID NO 309; assay: peptide ELISA, 5 µg/mL
[23] = biological target: truncated M2 peptide SEQ ID NO 310; assay: peptide ELISA, 5 µg/mL
[24] = biological target: truncated M2 peptide SEQ ID NO 311; assay: peptide ELISA, 5 µg/mL
[25] = biological target: truncated M2 peptide SEQ ID NO 312; assay: peptide ELISA, 5 µg/mL
[26] = biological target: truncated M2 peptide SEQ ID NO 313; assay: peptide ELISA, 5 µg/mL
[27] = biological target: truncated M2 peptide SEQ ID NO 314; assay: peptide ELISA, 5 µg/mL
[28] = biological target: truncated M2 peptide SEQ ID NO 315; assay: peptide ELISA, 5 µg/mL
[29] = biological target: truncated M2 peptide SEQ ID NO 316; assay: peptide ELISA, 5 µg/mL
[30] = biological target: T2, M2 protein on influenza A/Puerto Rico/8/34 (H1N1) virus particles (influenza A virus A/Puerto Rico/8/34 …, UniProt P06821 1-97); assay: ELISA on purified A/Puerto Rico/8/34 virus
[31] = biological target: M2 protein of influenza A/Puerto Rico/8/34 (H1N1) on cells (influenza A virus A/Puerto Rico/8/34 …, UniProt P06821 1-97); assay: FACS, MDCK cells infected with A/Puerto Rico/8/34
[32] = biological target: T1, M2 protein of influenza A/Fort …; assay: cell staining images, 293-HEK cells stably expressing M2
[33] = biological target: T2, M2 protein on influenza A/Puerto …; assay: ELISA on A/PR/8 virus, normalised to 8i10 at 10 µg/ml [D00002 FIG. 2B]

Row | Molecule | ELISA A450 [10] | ELISA A450 [13] | ELISA A450 [14] | ELISA A450 [15] | ELISA A450 [16] | ELISA A450 [17] | ELISA A450 [18] | ELISA A450 [19] | ELISA A450 [23] | ELISA A450 [24] | ELISA A450 [25] | ELISA A450 [26] | ELISA A450 [27] | ELISA A450 [28] | ELISA A450 [29] | EC50 [30] [µg/mL] | EC50 (read off the curve) [31] [ng/mL] | binding result [32] | EC50 (read off the curve) [33] [ng/mL] | further results
1 | CCOC(=O)C1=C[C@@H](OC(CC)CC)[C@H](NC(C)=O)[C@@H](N)C1 [oseltamivir] |  |  |  |  |  |  |  |  |  |  |  |  |  |  |  |  |  |  |  | survival rate at day 14 [1]: 20%; survival rate at day 14 [2]: 20%; mice surviving until day 21 [3]: about 10%; survival rate at day 21 (H1N1 (A/NWS/33); 2MLD50): 90%; survival rate at day 21 (H1N1 (A/NWS/33); 4MLD50): 100%; survival rate at day 21 (H1N1 (A/PR/8/34)): 80%; survival rate at day 14 (H5N1 (VN1203/04) [4]): 90% and 50%; protection from death (in words) [5]: completely protected mice; protection from weight loss (in words) [5]: completely protected mice; survival rate at day 15 [5]: 60%; weight remaining (in words) [5]: retained more weight; survival (in words) [6]: extinction of the population prior to the end of the therapy
2 | CCOC(=O)C1=C[C@@H](OC(CC)CC)[C@H](NC(C)=O)[C@@H](N)C1 [Osel] |  |  |  |  |  |  |  |  |  |  |  |  |  |  |  |  |  |  |  | Brain: pathological changes (H5N1 (VN1203/04) [7]): −/− and ++/++ and +/++; Liver: pathological changes (H5N1 (VN1203/04) [7]): −/−; Liver: viral antigens (H5N1 (VN1203/04) [7]): −/−; Lung: pathological changes (H5N1 (VN1203/04) [7]): +/+ and +/++ and ++/++; Brain: viral antigens (H5N1 (VN1203/04) [8]): −/−; Lung: viral antigens (H5N1 (VN1203/04) [8]): +/+; Brain: viral antigens (H5N1 (VN1203/04) [9]): ++/++ and +/++; Lung: viral antigens (H5N1 (VN1203/04) [9]): +/++ and ++/++
3 | 8I10 (antibody, V domains shown) VH: QVQLQESGPGLVKPSETLSLTCTVSGSSISNYYWSWIRQSPGKGLEWIGFIYYGGNTKYNPSLKSRVTISQDTSKSQVSLTMSSVTAAESAVYFCARASCSGGYCILDYWGQGTLVTVS VL: DIQMTQSPSSLSASVGDRVTITCRASQNIYKYLNWYQQRPGKAPKGLISAASGLQSGVPSRFSGSGSGTDFTLTITSLQPEDFATYYCQQSYSPPLTFGGGTRVEIK | 0.12 | 0.09 | 0.11 | 0.13 | 0.12 | 0.14 | 0.14 | 0.14 | 0.11 | 0.11 | 0.1 | 0.13 | 0.1 | 0.1 | 0.1 | ~0.1 | ~100 | binds | ~40 | ELISA A450 (M2 peptide SEQ ID NO 273): 0.11; ELISA A450 [11]: 0.09; ELISA A450 [12]: 0.09; ELISA A450 [20]: 0.26; ELISA A450 [21]: 0.29; ELISA A450 [22]: 0.12
4 | 23K12 (antibody, V domains shown) VH: EVQLVESGGGLVQPGGSLRISCAASGFTVSSNYMSWVRQAPGKGLEWVSVIYSGGSTYYADSVKGRFSFSRDNSKNTVFLQMNSLRAEDTAVYYCARCLSRMRGYGLDVWGQGTTVTVS VL: DIQMTQSPSSLSASVGDRVTITCRTSQSISSYLNWYQQKPGKAPKLLIYAASSLQSGVPSRFSGSGSGTDFTLTISGLQPEDFATYYCQQSYSMPAFGQGTKLEIK | 0.3 | 0.2 | 0.34 | 0.35 | 0.34 | 0.36 | 0.34 | 0.39 | 0.24 | 0.25 | 0.24 | 0.3 | 0.24 | 0.2 | 0.2 | ~0.1 | ~200 | binds | ~60 | 
